Laboratory results taken from patent US20190361013A1 (SCUOLA NORMALE SUPERIORE, published 2019).

Tests used:
Assay in all cases: yeast two-hybrid (IACT), VP16 prey vs LexA bait, secondary screening
LexA-Gcn5mut-HA = molecular target: T1, LexA-Gcn5mut-HA
T1 construct: Control bait without H3

LexA-Gcn5wt-HA = molecular target: T2, LexA-Gcn5wt-HA
T2 construct: Control bait without H3

[1] = molecular target: T3, LexA-HistoneH3-Gcn5mut-HA
T3 construct: Control bait; H3 not acetylated; also called LexA-H3-Gcn5mut-HA

LexA-IN = molecular target: T4, LexA-IN
T4 construct: Non-acetylated Integrase bait; also called LexA-Integrase; IN-stop (non-acetylated)
T4 chain: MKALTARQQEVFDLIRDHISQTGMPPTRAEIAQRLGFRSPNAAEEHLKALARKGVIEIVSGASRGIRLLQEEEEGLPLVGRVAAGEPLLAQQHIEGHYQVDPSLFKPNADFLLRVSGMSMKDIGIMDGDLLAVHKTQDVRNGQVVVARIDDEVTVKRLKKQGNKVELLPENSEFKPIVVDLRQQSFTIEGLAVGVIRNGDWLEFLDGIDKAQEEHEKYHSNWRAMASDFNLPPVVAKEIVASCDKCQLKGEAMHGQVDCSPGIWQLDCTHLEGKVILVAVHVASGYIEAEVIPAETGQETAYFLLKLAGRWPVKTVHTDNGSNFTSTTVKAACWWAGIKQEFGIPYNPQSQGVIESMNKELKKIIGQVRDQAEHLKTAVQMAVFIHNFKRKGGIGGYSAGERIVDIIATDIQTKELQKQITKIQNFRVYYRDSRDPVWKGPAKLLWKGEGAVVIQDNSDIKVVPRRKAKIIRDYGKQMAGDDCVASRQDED

LexA-Integrase-p300wt-HA = molecular target: T5, LexA-Integrase-p300wt-HA (Integrase constitutively acetylated in cis by the fused p300 wt HAT; positions not stated)
T5 construct: Tethered catalysis bait expressed in L40 yeast from pMICBD1; also called IN-HATwt-HA; screening bait
T5 chain: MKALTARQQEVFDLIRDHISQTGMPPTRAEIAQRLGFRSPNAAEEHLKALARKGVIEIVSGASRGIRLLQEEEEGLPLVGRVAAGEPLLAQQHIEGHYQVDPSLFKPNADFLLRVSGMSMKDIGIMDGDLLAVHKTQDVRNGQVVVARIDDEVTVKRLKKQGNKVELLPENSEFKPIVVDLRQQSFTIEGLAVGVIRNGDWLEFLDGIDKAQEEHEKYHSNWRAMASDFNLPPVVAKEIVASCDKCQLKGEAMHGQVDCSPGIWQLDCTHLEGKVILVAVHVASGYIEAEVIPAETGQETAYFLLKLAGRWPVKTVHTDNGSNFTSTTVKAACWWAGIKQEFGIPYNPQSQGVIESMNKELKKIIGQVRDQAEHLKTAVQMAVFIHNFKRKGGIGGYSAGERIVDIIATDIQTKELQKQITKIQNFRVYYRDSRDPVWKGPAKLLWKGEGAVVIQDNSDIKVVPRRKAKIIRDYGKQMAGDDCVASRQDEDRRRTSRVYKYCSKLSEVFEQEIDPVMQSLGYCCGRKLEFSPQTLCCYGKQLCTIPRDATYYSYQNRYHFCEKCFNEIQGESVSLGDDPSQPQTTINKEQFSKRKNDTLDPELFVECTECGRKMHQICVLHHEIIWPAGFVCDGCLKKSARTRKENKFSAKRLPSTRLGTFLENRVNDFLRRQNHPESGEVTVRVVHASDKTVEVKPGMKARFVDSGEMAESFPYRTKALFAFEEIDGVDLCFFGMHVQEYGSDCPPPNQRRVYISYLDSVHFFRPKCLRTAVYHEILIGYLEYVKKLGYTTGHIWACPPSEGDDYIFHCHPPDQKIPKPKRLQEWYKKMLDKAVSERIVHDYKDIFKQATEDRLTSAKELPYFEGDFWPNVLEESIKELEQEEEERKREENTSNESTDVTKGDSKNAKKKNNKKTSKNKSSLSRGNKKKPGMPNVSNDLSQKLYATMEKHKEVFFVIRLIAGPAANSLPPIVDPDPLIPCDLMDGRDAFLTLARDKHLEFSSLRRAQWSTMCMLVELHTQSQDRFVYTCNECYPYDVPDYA

Binder | binding result (LexA-Gcn5mut-HA) | binding result (LexA-Gcn5wt-HA) | binding result [1] | binding result (LexA-IN) | binding result (LexA-Integrase-p300wt-HA)
ScFv-58F (scFv, not shown: large carriers, Yeast two-hybrid prey from mouse naive SPLINT ScFv library; also called ScFv-58 intrabody) scFv: DILMTQSPAIMSASPGEKVTMTCRASSSVSSSYLHWYQQKSGASPKLWIYSTSNLASGVPARFSGSGSGTSYSLTISSVEAEDAATYYCQQYSGYPWTSGGGTKLEIKRSGGSTSGSGKPGSGEGSSSTEVKVEESGGGLVQPGGSMKLSCVASGFTFSNYWMNWVRQSPEKGLEWVAEIRLKSNNYATHYAESVKGRFTISRDDSESSVYLQMNNLRAEDTGIYYCTRRNGPSSRAMDYWGQGTTVTVSS | no binding | no binding | no binding | – | –
VH-12A (VHH, not shown: large carriers, Single mouse VH domain split from ScFv-12A, as yeast two-hybrid prey; also called VH-12X) VHH: QVQLQQSGAELVKPGASVKLSCTASGFNIKDTYMHWVKQRPEQGLEWIGRIDPANGNTKYDPKFQGKATITADTSSNTAYLQLSSLTSEDTAVYYCASLLWWGQGTLVTVSA | – | – | – | binds | binds
